Biological target: USP7 (UniProt Q93009)
Assay: co-IP of Flag-HIF-1α, USP7 blot
Details: reference: wild type Flag-HIF-1α; sites T645

HIF-1α (from UniProt Q16665) Flag-HIF-1α T645A
binding against the reference: weaker

— paper PMC12095048
